Measurements from patent US20160040149A1, “Compositions Having Dicamba Decarboxylase Activity and Methods of Use” (priority 2013, published 2016).
Where a chain is given by its changes, count along the chain named.

B1: 15 (protein, listed as Metarhizium anisopliae)
chain: MAQEIAKSHETSTRFAGFAVLPMRDPEAAAKELERAVKKLGFVGALVDHKTAHGNGFCEGNEYDVLWRKAEQLAVPIYLHPSWPTEKQFQQAYAGNYSPTAAGTIGGAMFNWHSEVGHHVLRLYAAGVFDKFPKLKIIIGHFGEMIPYMLDRIREQDHRLGKTGRTFSEVYDENIWITTSGVWSLDPMRCILANTKIDHILYSVDYPFTMNERGLEWFQELEKSGLLSEEDLALIAYKNCEKLLGVKAPTQD
B2: 18 (protein, listed as Legionella pneumophila)
chain: MAIVDFETHFITEACIDYLTQRQEVPKLVPELNGAYTMCFTPDVSLFHTSALMEELLSLNEQRLAIMDQAGVTIQVLSLTTINGIDSCPGDENKSTALAREVNDQLYSAIQKHPERFKGFASISPYDVKEGVKELERAISQLGFVGWLTHSNFGQDNYLDDKIYWPLLEAAESLNIPIYLHPNVPIMREFGKYGFALGGSALGFEFDTALCLMRMILGGVFDAFPKLKIMLGHLGETMPFLMERLDHLYRIPDLKPYRPSIQRIPSEVLRQNVYITTSGRFFVPALRYVLEVMGEDRVLFASDYPMESLLDATRFIQDSDLSNQTKQKIFSINAKNLNLI
B3: 20 (protein, listed as Legionella pneumophila)
chain: B2 chain with E31D, K112R, I163T, S173G, P256A
B4: 16 (protein, listed as Staphylococcus aureus)
chain: MAQNNMEANQMKSITFEEHYVIEDIQKETMNAISADPKGVPMKVMLEGLEKKTGFTNADELSHHDERIQFMNNQDVQIQVLSYGNGSPSNLVGQKAIELCQKANDQLANYIAQYPNRFVGFATLPINEPETAAREFERCINDLGFKGALIMGRAQDGFLDQDKYDIIFKTAENLGVPIYLHPAPVNSDIYQSYYKGNYPEVTAATFACFGYGWHIDVGIHAIHLVLSGIFDRYPKLNMIIGHWGEFIPFFLERMDEALFAEHLNHPVSYYFKNNFYITPSGMLTKPQFDLVKKEAGIDRILYAADYPYIEPEKLGVFLDELGLTDEEKEKISYTNGAKLLGLSSNN
B5: 19 (protein, listed as Talaromyces marneffei)
chain: MATPIITLEEHYISSAIRDASETDHYAVFPSQIISKLNTLSTERLQDLDNGHVSLQVISHGPGAQPPYLCQAANDELASAISANPTRFAGFALLPIAEPQLAVQELERCITQHKFVGALIDNHTNGQFYDDQKFWPVFEKAQELDAPIYVHPSYPDEESGVAAHYRGNYDDRIAAALGAYGWGWHSDTALSILRLFAAGLFDTYPNIKIIIGHMGEMLPFQLERVIGIASRFGRSRGLREVWTQNIWVTTSGMFALAPLACLLQTMPIERVLYSVDYPFSANEKGFAFLEEIKKSGLIKEGEDWERFLYKNAQELLKVNV
B6: 17 (protein)
chain: MARGKIALEEAFEVKGMDEEIDAQAALYIAPKDVERYKRQIVSITDERLQLSDQNGIGYSILSLTVPGIQGITDKDKAEKRARDVNNYIHDQIKDHRDRLGAFAALSMHDPRQAGHELRRCVKELGFHGALLNDVQHTGEGDDDQPLFYDQPDYDEFWRVAVELDVPVYLHPAAPLRDTLIYKQSYEDRKYLVGPPQSYCNGVALHLMGIIVNGVFDRFPNLKVIVGHMGERIPFDFWRMDHWVKGVTRPLAEKNGDTVCQKEPLYYFKRNIYITTSGHFSTQNLRYLYEWLGDERMMFSVDFPYERMEHGCQWYDDDAEKIKEALGGRDGYLRVGRDNARRLFKLTKFKDCDAV
modifications: Aspergillus niger

Experiment: Saturation mutagenesis of SEQ ID NO:109: dicamba decarboxylation activity of point mutants (CO2 released), fold of backbone (Tables 7, 8, Megatable 1)
Conditions: decarboxylation activity (CO2 released) of point mutant vs unmutated backbone protein; backbone SEQ ID NO: 109

Compared with B1, B2 is higher in “Fold Activity” value: 1 fold for the first, 1.2 fold for the second.

First: B3
Second: B4
The “Fold Activity” value of the first is higher: 1.8 fold for the first, 1.1 fold for the second.

Going from B5 to B6, the “Fold Activity” value rises from 1.6 fold to 1.8 fold.
